Data on 5 substances can be found in article PMC8545396.

Values joined by “and” are separate entries in the source; they are usually repeats but may differ in a detail not shown here. Identical values can stand only once. Like-named read-outs stand apart in the source and are kept apart here.

Experiment [1] deals with M2-mCherry2 (mCherry2 fused to the extracellular terminus of matrix protein 2 from influenza A/chicken/FPV/Rostock/1934) (influenza A/chicken/FPV/Rostock/1934).
The target of experiment [2] is PB2-mCherry2 (IAV polymerase basic protein 2, influenza A/human/WSN/1933) (influenza A/human/WSN/1933).
Experiment [3] has as its target PA-mEYFP (IAV polymerase acidic protein, influenza A/human/WSN/1933) (influenza A/human/WSN/1933) (UniProt P15659).
For experiment [4], the target named is PB1-mEGFP (IAV polymerase basic protein 1, influenza A/human/WSN/1933) (influenza A/human/WSN/1933).
In experiment [5] the target is M2-mCherry2 (mCherry2 fused to the extracellular terminus of matrix protein 2 from influenza A/chicken/FPV/Rostock/1934) (influenza A/chicken/FPV/Rostock/1934). This is another data set of the same source.
Experiment [6] concerns the target PB2-mCherry2 (IAV polymerase basic protein 2, influenza A/human/WSN/1933) (influenza A/human/WSN/1933). The source holds these as a separate data set.
The target of experiment [7] is PA-mEYFP (IAV polymerase acidic protein, influenza A/human/WSN/1933) (influenza A/human/WSN/1933) (UniProt P15659). This is another data set of the same source.

With “M2-mCherry2 (mCherry2 fused to the extracellular terminus of matrix protein 2 from influenza A/chicken/FPV/Rostock/1934) (natural protein)”, in experiment [1], the normalized molecular brightness is 2.24 and the stoichiometry N came out at 3.1.
As to “PB1-mEGFP (IAV polymerase basic protein 1, influenza A/human/WSN/1933) (natural protein)”, the relative cross-correlation (rel.cc.) in experiment [2] stood at 0.47; in experiment [3], 0.93. This substance also registered a stoichiometry N in experiment [4] of 2.1.
For the substance “LC3-mEYFP (from UniProt Q62625 1-120) (natural protein)”, the stoichiometry N in experiment [5] is 0.5 LC3:M2 and 0.25 LC3:M2. Besides, the relative cross-correlation (rel.cc.) in experiment [1] came to 0.52.
On to “PB2-mCherry2 (IAV polymerase basic protein 2, influenza A/human/WSN/1933) (natural protein)”, for which the stoichiometry N in experiment [6] was found to be 2.2.
As to “PA-mEYFP (IAV polymerase acidic protein, influenza A/human/WSN/1933) (from UniProt P15659 1-716) (natural protein)”, the relative cross-correlation (rel.cc.) in experiment [2] stood at 0.39. In experiment [7], this substance had a stoichiometry N of 1.8.

The term stoichiometry N denotes the number of molecules, sites or subunits per partner or assembly.
